Assays:
Assay in all cases: IEDB peptide-MHC binding, purified MHC/competitive/radioactivity; filed as Kd, often an IC50 or EC50 that approximates it; ≥ and ≤ were set here for values at or beyond the usual limits of such assays
HLA-A*68:01 = biological target: HLA-A*68:01
HLA-A*31:01 = biological target: HLA-A*31:01
HLA-A*33:01 = biological target: HLA-A*33:01
HLA-A*03:01 = biological target: HLA-A*03:01
HLA-A*11:01 = biological target: HLA-A*11:01
HLA-A*02:03 = biological target: HLA-A*02:03
[1] = source organism: SARS coronavirus Tor2
[2] = source organism: Mammarenavirus lassaense
[3] = source organism: Vaccinia virus WR
[4] = source organism: Lassa virus GA391

Sequence: LMPILTLTR
- Kd (HLA-A*68:01; [1]): 1720 nM
- Kd (HLA-A*31:01; [1]): 723 nM
- Kd (HLA-A*33:01; [1]): 15000 nM
- Kd (HLA-A*03:01; [1]): 102 nM
- Kd (HLA-A*11:01; [1]): 1130 nM

Sequence: TLMSIISTFH
- Kd (HLA-A*68:01; [2]): 2920 nM
- Kd (HLA-A*31:01; [2]): 8710 nM
- Kd (HLA-A*33:01; [2]): 15900 nM
- Kd (HLA-A*03:01; [2]): 6370 nM
- Kd (HLA-A*11:01; [2]): ≥ 34600 nM

Sequence: EILRNYLRLY
- Kd (HLA-A*68:01; [3]): 512 nM
- Kd (HLA-A*31:01; [3]): 3460 nM
- Kd (HLA-A*33:01; [3]): 123 nM
- Kd (HLA-A*03:01; [3]): 489 nM
- Kd (HLA-A*11:01; [3]): 2110 nM

Sequence: GMLIYSMWGK
- Kd (HLA-A*68:01; [3]): 54.6 nM
- Kd (HLA-A*31:01; [3]): 271 nM
- Kd (HLA-A*33:01; [3]): 9910 nM
- Kd (HLA-A*03:01; [3]): 8.57 nM
- Kd (HLA-A*11:01; [3]): 17.5 nM

Sequence: KMAVEVGSIR
- Kd (HLA-A*68:01; [3]): 95.8 nM
- Kd (HLA-A*31:01; [3]): 1670 nM
- Kd (HLA-A*33:01; [3]): 13700 nM
- Kd (HLA-A*03:01; [3]): 4540 nM
- Kd (HLA-A*11:01; [3]): ≥ 21100 nM

Sequence: TSKTTILSK
- Kd (HLA-A*68:01; [3]): 1110 nM
- Kd (HLA-A*31:01; [3]): 2020 nM
- Kd (HLA-A*33:01; [3]): ≥ 37700 nM
- Kd (HLA-A*03:01; [3]): 4520 nM
- Kd (HLA-A*11:01; [3]): 403 nM

Sequence: IILAALFMY
- Kd (HLA-A*68:01; [3]): ≥ 55700 nM
- Kd (HLA-A*31:01; [3]): 11400 nM
- Kd (HLA-A*33:01; [3]): 13300 nM
- Kd (HLA-A*03:01; [3]): 20.5 nM
- Kd (HLA-A*11:01; [3]): 0.307 nM

Sequence: TVSALVYDNK
- Kd (HLA-A*68:01; [1]): 5.88 nM
- Kd (HLA-A*31:01; [1]): 4890 nM
- Kd (HLA-A*33:01; [1]): 9750 nM
- Kd (HLA-A*03:01; [1]): 488 nM
- Kd (HLA-A*11:01; [1]): 20.6 nM

Sequence: IVPFWITAIY
- Kd (HLA-A*68:01; [1]): 178 nM
- Kd (HLA-A*31:01; [1]): 1320 nM
- Kd (HLA-A*33:01; [1]): 2360 nM
- Kd (HLA-A*03:01; [1]): 71 nM
- Kd (HLA-A*11:01; [1]): 1020 nM

Sequence: LILAEYIRHR
- Kd (HLA-A*68:01; [3]): 1730 nM
- Kd (HLA-A*31:01; [3]): 80.4 nM
- Kd (HLA-A*33:01; [3]): 5390 nM
- Kd (HLA-A*03:01; [3]): 2190 nM
- Kd (HLA-A*11:01; [3]): 738 nM

Sequence: NLEMIDERKY
- Kd (HLA-A*68:01; [3]): ≥ 21400 nM
- Kd (HLA-A*31:01; [3]): ≥ 24200 nM
- Kd (HLA-A*33:01; [3]): ≥ 70000 nM
- Kd (HLA-A*03:01; [3]): ≥ 70100 nM
- Kd (HLA-A*11:01; [3]): ≥ 69800 nM

Sequence: GLKSKTHAV
- Kd (HLA-A*02:03; source organism: Homo sapiens): 1.58 nM

Sequence: DLTTMPTYK
- Kd (HLA-A*68:01; [3]): 128 nM
- Kd (HLA-A*31:01; [3]): 630 nM
- Kd (HLA-A*33:01; [3]): 914 nM
- Kd (HLA-A*03:01; [3]): 757 nM
- Kd (HLA-A*11:01; [3]): 293 nM

Sequence: SSIDVDKRTK
- Kd (HLA-A*68:01; [3]): 19.1 nM
- Kd (HLA-A*31:01; [3]): 752 nM
- Kd (HLA-A*33:01; [3]): 8970 nM
- Kd (HLA-A*03:01; [3]): 493 nM
- Kd (HLA-A*11:01; [3]): 0.841 nM

Sequence: DVRDKRRKY
- Kd (HLA-A*68:01; [3]): ≥ 53800 nM
- Kd (HLA-A*31:01; [3]): ≥ 77900 nM
- Kd (HLA-A*33:01; [3]): ≥ 77700 nM
- Kd (HLA-A*03:01; [3]): ≥ 28900 nM
- Kd (HLA-A*11:01; [3]): ≥ 77900 nM

Sequence: ENAVWDQFK
- Kd (HLA-A*68:01; [4]): 250 nM
- Kd (HLA-A*31:01; [4]): ≥ 77900 nM
- Kd (HLA-A*33:01; [4]): 1020 nM
- Kd (HLA-A*03:01; [4]): ≥ 31500 nM
- Kd (HLA-A*11:01; [4]): 15100 nM

Sequence: RTRLYDYFTR
- Kd (HLA-A*68:01; [3]): 1450 nM
- Kd (HLA-A*31:01; [3]): 0.7 nM
- Kd (HLA-A*33:01; [3]): 1630 nM
- Kd (HLA-A*03:01; [3]): 6060 nM
- Kd (HLA-A*11:01; [3]): 991 nM

Sequence: VMNIERQDYR
- Kd (HLA-A*68:01; [3]): 153 nM
- Kd (HLA-A*31:01; [3]): 46.7 nM
- Kd (HLA-A*33:01; [3]): 65.1 nM
- Kd (HLA-A*03:01; [3]): 11400 nM
- Kd (HLA-A*11:01; [3]): 4140 nM

Sequence: ITKEIKNRDK
- Kd (HLA-A*68:01; [3]): 2210 nM
- Kd (HLA-A*31:01; [3]): ≥ 10000 nM
- Kd (HLA-A*33:01; [3]): ≥ 35800 nM
- Kd (HLA-A*03:01; [3]): 7890 nM
- Kd (HLA-A*11:01; [3]): 18400 nM

Sequence: RTFNEDLFR
- Kd (HLA-A*68:01; [3]): 22.3 nM
- Kd (HLA-A*31:01; [3]): 17.6 nM
- Kd (HLA-A*33:01; [3]): 1570 nM
- Kd (HLA-A*03:01; [3]): 73.5 nM
- Kd (HLA-A*11:01; [3]): 15.1 nM

Sequence: VQMLSDTLK
- Kd (HLA-A*68:01; [1]): 2480 nM
- Kd (HLA-A*31:01; [1]): 413 nM
- Kd (HLA-A*33:01; [1]): ≥ 77700 nM
- Kd (HLA-A*03:01; [1]): 74.3 nM
- Kd (HLA-A*11:01; [1]): 18.7 nM

Sequence: LSKWHTSAR
- Kd (HLA-A*68:01; [3]): 20.7 nM
- Kd (HLA-A*31:01; [3]): 1.34 nM
- Kd (HLA-A*33:01; [3]): 15.3 nM
- Kd (HLA-A*03:01; [3]): 5830 nM
- Kd (HLA-A*11:01; [3]): 3430 nM

Sequence: ELGIAIFNNR
- Kd (HLA-A*68:01; [3]): 40.6 nM
- Kd (HLA-A*31:01; [3]): 59.9 nM
- Kd (HLA-A*33:01; [3]): 160 nM
- Kd (HLA-A*03:01; [3]): 961 nM
- Kd (HLA-A*11:01; [3]): 1470 nM

Sequence: FASADNHPK
- Kd (HLA-A*68:01; [3]): 55.7 nM
- Kd (HLA-A*31:01; [3]): 12400 nM
- Kd (HLA-A*33:01; [3]): 1240 nM
- Kd (HLA-A*03:01; [3]): 7960 nM
- Kd (HLA-A*11:01; [3]): 174 nM

Sequence: PLFHGGEPIK
- Kd (HLA-A*68:01; [3]): ≥ 70200 nM
- Kd (HLA-A*31:01; [3]): ≥ 70000 nM
- Kd (HLA-A*33:01; [3]): ≥ 70000 nM
- Kd (HLA-A*03:01; [3]): 18300 nM
- Kd (HLA-A*11:01; [3]): ≥ 28700 nM

Sequence: PLNEAIMAV
- Kd (HLA-A*02:03; source organism: Dengue virus 2 Jamaica/1409/1983): 18.3 nM

Sequence: LIHDNIMYTY
- Kd (HLA-A*68:01; [3]): 566 nM
- Kd (HLA-A*31:01; [3]): 4160 nM
- Kd (HLA-A*33:01; [3]): ≥ 32300 nM
- Kd (HLA-A*03:01; [3]): 45.3 nM
- Kd (HLA-A*11:01; [3]): 238 nM

Sequence: YLKNYKNFDY
- Kd (HLA-A*68:01; [3]): 7290 nM
- Kd (HLA-A*31:01; [3]): 1540 nM
- Kd (HLA-A*33:01; [3]): ≥ 70000 nM
- Kd (HLA-A*03:01; [3]): 4070 nM
- Kd (HLA-A*11:01; [3]): 2490 nM
